Reference: US20230079150A1, “METHODS FOR PREVENTION OR TREATMENT OF VIRUS-INDUCED ORGAN INJURY OR FAILURE WITH IL-22 DIMER” (priority 2020, published 2023)

Legend:
C57BL/6 mice [1] = assay: LPS acute lung injury mouse model: BAL cell counts; type: in vivo; conditions: for BAL total cell counts: F-652 4 μg tail vein at 30 min
Procedure: (§1) After approval from the Tulane University, Institutional Animal Care and Use Committee (protocol ID 607), equal numbers of male and female, 6-8 week old C57BL/6 mice (Charles River Laboratories, Cambridge, Mass.) were given acute lung injury (ALI) via intra-tracheally administered LPS. After obtaining appropriate depth of anesthesia using isoflurane, the high-dose LPS group (HDG) received 100 μg of LPS administered intra-tracheally. Approximately 30 minutes after LPS administration, 4 μg of F-652 was administered via tail vein injection (n=11), then compared to animals receiving sham injection (n=8) with phosphate-buffered saline (PBS). In the low-dose LPS group (LDG), 33.3 μg of LPS was administered intra-tracheally. F-652 was again administered at 30 minutes (n=9) and compared to sham injected animals (n=9). The Interleukin-22:Fc (F-652) protein is a recombinant fusion protein (F-652) (Evive Biotech, Shanghai, China) with two human IL-22 molecules linked to the Fc portion of human immunoglobulin G2, which extends the half-life of the molecule.
Euthanasia and bronchoalveolar lavage (BAL) was carried out on post-injury day 4. After obtaining appropriate levels of anesthesia with inhaled isoflurane, the trachea was cannulated using a 26 gauge needle and BAL was performed with three successive washes using 1 mL of PBS. Next, a small segment of the left lower lobe was removed and saved for RNA isolation. Finally, 1 cc of 4% paraformaldehyde was injected to the lung for fixation.
The BAL fluid was then centrifuged at 500×gravity for 5 minutes. Cells were obtained from the BAL after centrifuge and cell counts performed. Cells were then affixed to glass slides and stained with Wright's stain. To quantify protein in the BAL supernatant, a Bradford protein assay (Bio-Rad Laboratories) was performed. Protein was quantified by measuring absorbance at 595 nm on a BMG Labtech FLUOstar Optima plate reader. In addition, the BAL supernatant was used to measure pro-inflammatory cytokines using a Milliplex Mouse Cytokine/Chemokine Magnetic Bead Panel (Millipore Sigma). The 32 cytokines measured included Eotaxin, Granulocyte Colony-Stimulating Factor (G-CSF), Granulocyte-Monocyte Colony-Stimulating Factor (GM-CSF), Interferon-γ (IFN-γ), Interleukin-1α (IL-1α), IL-1, IL-2, IL-3, IL-4, IL-5, IL-6, IL-7, IL-9, IL-10, IL-12 (p40 segment), IL-12 (p70 segment), IL-13, IL-15, IL-17, Interferon-γ induced protein 10 (IP-10), keratinocyte chemoattractant (KC), leukemia inhibitory factor (LIF), lipopolysaccharide-induced CXC chemokine (LIX), monocyte chemoattractant protein-1 (MCP-1), macrophage colony-stimulating factor (M-CSF), monokine induced by gamma-interferon (MIG), MIP-1α, macrophage inflammatory protein-1β/CCL4 (MIP-1β), MIP-2, regulated upon activation, normal T-cell expressed and presumably secreted (RANTES), tumor necrosis factor-α (TNF-α), vascular endothelial growth factor (VEGF). Human IL-22 was measured using an IL-22 Human ELISA kit (ThermoFisher Scientific). Mouse IL-22 was measured using an IL-22 Mouse/Rat Quantikine ELISA kit (R&D Systems).

[2] = tested on: H1N1 influenza (A/PR8 strain); type: in vivo, C57BL/6 mice; conditions: both aged and young H1N1-infected mice
C57BL/6 mice [3] = assay: LPS acute lung injury mouse model: histopathology score; type: in vivo
Procedure: as §1, with “The Interleukin-22:Fc (F-652) protein is a recombinant fusion protein (F-652) (Evive Biotech, Shanghai, China) with two human IL-22 molecules linked to the Fc portion of human immunoglobulin G2, which extends the half-life of the molecule.” left out
Immediately after sacrifice, lung tissue from the right lower lobe was fixed in 4% paraformaldehyde and cut into sections. […] Lung injury induced by LPS was assessed by a blinded reviewer with a numerical scoring scale ranging from 0-4. Regions of lung injury in sections were scored for the extent of intimal thickening, alveolitis, and the presence of proteinaceous material in the alveolar space. […]

HUVECs = assay: Real-time quantitative RT-PCR of mRNA levels in HUVECs; type: cell-based, human
Procedure: RNA was isolated with Trizol (Invitrogen) and used as a template for reverse transcriptase (reverse transcriptase mix sold under the trademark ISCRIPT® RT supermix, Bio-Rad). mRNAs were quantified by real-time PCR with the cyanine nucleic acid dye IQ SYBR® Green Supermix (Bio-Rad), and normalized against PPIA mRNA as the internal control gene. Relative changes in expression were calculated using the […] as established in prior studies. (Livak K J, Schmittgen T D. “Analysis of relative gene expression data using real-time quantitative PCR and the 2^−ΔΔCT method.” Methods. 2001; 25(4):402-8).

IL-22Ra1 = IL-22Ra1 receptor immunofluorescence in HUVECs; type: cell-based, human
Procedure: HUVECs were fixed in 3.5% formaldehyde in PBS for 10 minutes. Cells were then blocked in 1% BSA in PBS for one hour. Cells were then incubated overnight in primary antibody for IL-22Ra1 (Invitrogen, Carlsbad, Calif.) diluted 1:100 in 1% BSA in PBS. Cells were then washed with PBS 3 times. Cells were incubated with secondary antibody, goat anti-mouse Alexa Fluor 488 (1:500; Invitrogen, A28175) diluted 1:500 in 1% BSA in PBS along with 0.1 μg/ml of 4,6 diamidino-2phylindole (DAPI) (Sigma) for one hour, followed by three washes in PBS. Cells were then cover slipped with Fluoro Gel mounting medium and imaged on an EVOS fluorescence microscope. Fluorescence intensity was quantified using ImageJ.

[4] = LPS and F-652 co-exposed, LPS only 1.49
[5] = LPS and F-652 compared to control

B1: F-652: recombinant IL-22 dimer consisting of two monomeric subunits each comprising a sequence shown in SEQ ID NO: 24 (protein)
chain 1: APISSHCRLDKSNFQQPYITNRTFMLAKEASLADNNTDVRLIGEKLFHGVSMSERCYLMKQVLNFTLEEVLFPQSDRFQPYMQEVVPFLARLSNRLSTCHIEGDDLHIQRNVQKLKDTVKKLGESGEIKAIGELDLLFMSLRNACIGSGGGSGGGGSGGGGSVECPPCPAPPVAGPSVFLFPPKPKDTLMISRTPEVTCVVVDVSHEDPEVQFNWYVDGVEVHNAKTKPREEQFNSTFRVVSVLTVVHQDWLNGKEYKCKVSNKGLPASIEKTISKTKGQPREPQVYTLPPSREEMTKNQVSLTCLVKGFYPSDIAVEWESNGQPENNYKTTPPMLDSDGSFFLYSKLTVDKSRWQQGNVFSCSVMHEALHNHYTQKSLSLSPGK
chain 2: B1 chain 1
modifications: homodimer
C57BL/6 mice [1]; high-dose LPS (100 μg intra-tracheal), day 4, sham 3.15×10^6
  BAL total cell counts: 5.40×10^5 cells
C57BL/6 mice [1]; high-dose LPS, F-652 4 μg tail vein, day 4, sham 2.72×10^6
  BAL macrophage counts: 1.21×10^5 cells
C57BL/6 mice [1]; high-dose LPS, F-652 4 μg tail vein, day 4, sham 8.99×10^5
  BAL neutrophil counts: 3.69×10^4 cells
C57BL/6 mice [1]; high-dose LPS, F-652 4 μg tail vein, day 4, sham 213,225
  BAL lymphocyte counts: 2,163 cells
C57BL/6 mice [1]; low-dose LPS (33.3 μg intra-tracheal), post-injury day 4, sham 433,889
  BAL total cell counts: 364,444 cells
C57BL/6 mice [1]; low-dose LPS, F-652 4 μg tail vein, day 4, sham 6,556
  BAL lymphocyte count: 1,864 cells
C57BL/6 mice [1]; low-dose LPS, F-652 4 μg tail vein, day 4, sham 6,869
  BAL neutrophil count: 1,653 cells
C57BL/6 mice [1]; low-dose LPS, F-652 4 μg tail vein, day 4, sham 429,262
  BAL macrophage count: 290,611 cells
[2]
  hydroxyproline content of right lung lobes compared to PBS control: significantly reduced
C57BL/6 mice [3]; high-dose LPS injury, sham 2.0
  histopathology injury score (scale 0-4): 1.0
C57BL/6 mice [3]; low dose LPS injury
  histopathology scores, F-652 treated vs sham: did not show any difference
HUVECs; F-652 alone, control 1.09
  ADAM17 levels: 1.14 RE
HUVECs; F-652 alone, control 1.11
  MMP-7 levels: 1.23 RE
HUVECs; F-652 only
  levels of any matrix metalloproteinase: did not change
HUVECs; F-652 only exposed, control 1.06
  VE-CAD RNA levels: 1.01 RE
HUVECs; LPS and F-652, control 1.09, LPS 2.42
  ADAM17 levels: 1.22 RE
HUVECs; LPS and F-652, control 1.11, LPS 2.99
  MMP-7 levels: 1.53 RE
HUVECs; LPS and F-652 co-exposed, LPS only 1.48
  MYD88 RNA expression: 0.72 RE
HUVECs; [4]
  Exostosin-1 level: 0.82 RE
  TIMP2 level: 0.82 RE
HUVECs; LPS and F-652 co-exposed, LPS only 1.51
  IRAK4 mRNA expression: 0.86 RE
HUVECs; LPS and F-652 co-exposed, LPS only 1.88
  Exostosin-2 level: 0.99 RE
HUVECs; LPS and F-652 co-exposed, LPS only 1.92
  TIRAP mRNA expression: 0.82 RE
HUVECs; LPS and F-652 co-exposed, control 1.06, LPS only 1.96
  VE-CAD RNA levels: 0.81 RE
HUVECs; [5]
  expression of MMP-9: did not change
  expression of Matrix Metalloproteinase-1 (MMP-1): did not significantly change
  relative expression of MMP-2: lower relative expression
  relative expression of MMP-14: lower relative expression
HUVECs; LPS and F-652 exposed compared to LPS exposed (2.99)
  MMP-9 relative expression: 1.53 RE
HUVECs; all comparisons
  TLR4 mRNA: not significantly different
HUVECs; all group comparisons
  Levels of TRAM, TRAF6, IRAK1, and TRIF: not significantly different
HUVECs; among various HUVEC exposure groups
  Tissue inhibitor of metalloproteinase-1 (TIMP1): not different
IL-22Ra1; F-652 alone
  IL-22Ra1 receptor expression compared to control: did not result in a difference
IL-22Ra1; LPS and F-652, control 1.00
  IL-22Ra1 receptor relative expression: 0.69 RE
